Experimental data reported in the supplement of paper PMC9732359.
± gives the uncertainty stated by the source.

Assay: protein stability index of a GFP-peptide fusion (yeast GPS) (PSI 1-4); higher = more stable; sorted into four equal gates, so the index is relative within each strain
Summary of the method: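 Plasmids in a pooled yeast library fused tiled 17-residue yeast protein peptides downstream of GFP and also expressed Cherry. Mid-log cultures grown without leucine were sorted into four equal gates by GFP/Cherry fluorescence ratio. Each gate's plasmids were PCR-amplified and Illumina-sequenced, and reads were matched to strains by barcodes. The protein stability index is derived by multiplying each gate's read frequency by its gate number and summing the results.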

Row | Sequence | protein stability index (doa10∆) | protein stability index (pdr5∆) | protein stability index (san1∆) | protein stability index (ubr1∆)
1 | IKQTFKNDLFVIWSEDN [RPO21] | 2.13 ± 0.057 | 2.32 ± 0.063 | 2.31 ± 0.058 | 2.36 ± 0.056
2 | PQPLFMEDPPSTVSGEL [YMR153W/NUP53] | 3.38 ± 0.2 | 3.64 ± 0.19 | 3.58 ± 0.11 | 3.12 ± 0.16
3 | PLSDLKKRSQAKMNAKT [RPC82] | 3.21 ± 0.08 | 3.4 ± 0.081 | 3.05 ± 0.066 | 3.32 ± 0.045
4 | SRKRGGENVFLKRISDG [SIR3] | 3.35 ± 0.086 | 3.29 ± 0.072 | 3.07 ± 0.052 | 3.24 ± 0.037
5 | HGDAAVLLVEKYGAEYD [NAS6] | 1.94 ± 0.21 | – | 2.96 ± 0.22 | 3.04 ± 0.19
6 | ISLRNNMFELAQQLVGV [SMC4] | 1.24 ± 0.089 | 1.74 ± 0.079 | 1.78 ± 0.093 | 1.87 ± 0.084
7 | SLVIIILVKRYSIEMKP [ECM29] | 1.15 ± 0.049 | 1.38 ± 0.04 | 1.59 ± 0.069 | 2.04 ± 0.044
8 | FVDENTFQRVCQYMVAC [RPN1] | 3.09 ± 0.074 | 2.59 ± 0.072 | 2.77 ± 0.095 | 2.99 ± 0.091
9 | PIFDYIHIDALELAGMD [SIR3] | 1.63 ± 0.053 | 1.79 ± 0.054 | 2.05 ± 0.064 | 2.17 ± 0.092
10 | LATAHIYLSRFLIKASV [SSN8] | 1.23 ± 0.042 | 1.34 ± 0.051 | 1.31 ± 0.16 | 1.07 ± 0.055
11 | WVNNPKKRFTPHTVIRR [YDL088C/ASM4] | 3.42 ± 0.23 | – | – | –
12 | PKSKSLPNEMSQNDGFV [RPO31] | 3 ± 0.2 | 3.14 ± 0.14 | 3.38 ± 0.12 | 3.36 ± 0.11
13 | MATNRADTLDPALLRPG [RPT3] | – | 3.31 ± 0.18 | – | 2.79 ± 0.28
14 | QDGVLLVALSNEPAARL [FAS2] | 1.89 ± 0.063 | 1.9 ± 0.06 | 2.68 ± 0.09 | 1.46 ± 0.071
15 | NQIWNIALNLASKKFGK [SSN2] | 2.7 ± 0.13 | 2.88 ± 0.052 | 3.06 ± 0.067 | 3.08 ± 0.056
16 | KMSVTCNAQPITRSVMR [BRR2] | 2.47 ± 0.06 | 2.67 ± 0.057 | 2.72 ± 0.056 | 2.5 ± 0.037
17 | PPQQTYHFPIFNKYADP [RPN4] | 2.52 ± 0.046 | 2.8 ± 0.042 | 2.59 ± 0.034 | 2.65 ± 0.03
18 | GGLTKQIKEIKEVIELP [RPT6] | 3.74 ± 0.27 | – | 3.48 ± 0.27 | –
19 | KSLGLKLPLSVINVSAQ [RPS17A] | 1.35 ± 0.052 | 1.36 ± 0.048 | 1.41 ± 0.13 | 1.37 ± 0.073
20 | QAQAQAQANNNNNGLPQ [GAL11] | 3.04 ± 0.037 | 3.1 ± 0.035 | 2.952 ± 0.029 | 3.05 ± 0.033
21 | LQEKFLNQIATLKIHLK [IRR1] | 1.22 ± 0.12 | 1.4 ± 0.11 | – | 1.03 ± 0.093
22 | QVPQVRSMSGQPPTNVQ [SNF5] | 2.81 ± 0.05 | 3.03 ± 0.042 | 3.06 ± 0.037 | 2.95 ± 0.035
23 | MMTRRVVMAMYNPKMID [RET1] | 3.46 ± 0.15 | 3.37 ± 0.19 | 2.62 ± 0.29 | 3.05 ± 0.094
24 | ESFKGLQPFWFRVNNAS [ECM29] | 2.05 ± 0.13 | 1.92 ± 0.11 | – | 2.09 ± 0.15
25 | TCSYVEEAGSPLVYRHE [RPB9] | 3.06 ± 0.13 | 2.92 ± 0.15 | 3.28 ± 0.11 | 2.75 ± 0.28
26 | YASYFPYLLETYANVLI [RPN7] | 1.57 ± 0.088 | 1.43 ± 0.062 | 1.18 ± 0.096 | 1.08 ± 0.043
27 | IGTADIFIRQLKENEEN [BRR2] | 3.61 ± 0.12 | 3.1 ± 0.3 | – | 1.36 ± 0.1
28 | FLKEVLSDLSSPVQDWN [YML103C/NUP188] | 2.92 ± 0.088 | 3.03 ± 0.097 | 2.76 ± 0.11 | 2.96 ± 0.068
